# Target: miniTRIM37 RBhcc (human | T. thermophilus) (UniProt O94972)
# Assay: SEC-MALS
substance,measurement,value
miniTRIM37 RBhcc (from UniProt O94972 1-158; O94972 214-254),stoichiometry N,2

# — paper PMC11482875
